94 variants from article PMC11969024, “Development of chemokine network inhibitors using combinatorial saturation mutagenesis” (Communications Biology, 2025) can be followed below.

To fix the notation:
B1: peptide HD2 (from tick evasin EVA4) / CXCL14 (biotinylated, synthetic) (parent)
chain 1: EEDDYTAYAPLTCYFT
chain 2: SKCKCSRKGPKIRYSDVKKLEMKPKYPHCEEKMVIITTKSVSRYRGQEHCLHPKLQSTKRFIKWYNAWNEKRRVYEE
B2: peptide HD2 (from tick evasin EVA4) / CCL1 (biotinylated, synthetic) (parent)
chain 1: EEDDYTAYAPLTCYFT
chain 2: KSMQVPFSRCCFSFAEQEIPLRAILCYRNTSSICSNEGLIFKLKRGKEACALDTVGWVQRHRKMLRHCPSKRK

Variants of B1 are the subject of the first experiment. To be noted: with CXCL14 (biotinylated, synthetic); scale: log2.
Regarding chain 1 EEDDETAYAPLTCYFT, the enrichment is -1.74.

On to chain 1 EEDDATAYAPLTCYFT, for which the enrichment was -5.33.

For chain 1 EEDDDTAYAPLTCYFT, the enrichment is -5.31.

For the variant chain 1 EEDDVTAYAPLTCYFT, the enrichment is -7.53.

With chain 1 EEDDNTAYAPLTCYFT, the enrichment was -5.97.

As to chain 1 EEDDKTAYAPLTCYFT, the enrichment was -3.86.

As for chain 1 EEDDRTAYAPLTCYFT, the enrichment is -5.31.

As for chain 1 EEDDPTAYAPLTCYFT, the enrichment was -4.99.

On to chain 1 EEDDSTAYAPLTCYFT, for which the enrichment was -7.36.

Consider chain 1 EEDDTTAYAPLTCYFT, for which the enrichment is -5.93.

For the variant chain 1 EEDDQTAYAPLTCYFT, the enrichment was -3.62.

Take chain 1 EEDDGTAYAPLTCYFT: the enrichment is -5.37.

For the variant chain 1 EEDDYTAYAILTCYFT, the enrichment is -6.7.

chain 1 EEDDYTAYACLTCYFT: the enrichment was -7.98.

For chain 1 EEDDYTAYAKLTCYFT, the enrichment is -5.23.

For chain 1 EEDDYTAYANLTCYFT, the enrichment was -6.28.

Take chain 1 EEDDYTAYAYLTCYFT: the enrichment is -6.83.

In the case of chain 1 EEDDYTAYARLTCYFT, the enrichment is -7.34.

With chain 1 EEDDYTAYATLTCYFT, the enrichment is -6.13.

Take chain 1 EEDDYTAYAPLTCYFY: the enrichment was -5.41.

Consider chain 1 EEDDYTAYAPLTCYFF, for which the enrichment was -5.71.

For chain 1 EEDDYTAYAPLTCYFR, the enrichment was -7.45.

With chain 1 EEDDYTAYAPLTCPFT, the enrichment was -7.11.

In the case of chain 1 EEDDYTAYAPLTCDFT, the enrichment was -5.79.

For the variant chain 1 EEDDYTAYAPLTCMFT, the enrichment is -7.23.

Regarding chain 1 EEDDYTAYAPLTCKFT, the enrichment is -6.43.

On to chain 1 EEDDYTAYAPLTCRFT, for which the enrichment was -8.35.

Take chain 1 EEDDYTAYAPLTCSFT: the enrichment is -7.93.

In the case of chain 1 EEDDYTAYAPLTCNFT, the enrichment was -5.16.

In the case of chain 1 EEDDYTAYAPLTCGFT, the enrichment is -8.76.

For the variant chain 1 EEDDYTAYAPLTCIFT, the enrichment is -5.53.

Consider chain 1 EEDDYTAYAPLTCFFT, for which the enrichment was -6.35.

Consider chain 1 EEDDYTAYAPLTCTFT, for which the enrichment is -7.2.

For chain 1 EEDDYTAKAPLTCYFT, the enrichment was -4.33.

As to chain 1 EEDDYTAEAPLTCYFT, the enrichment is -4.45.

In the case of chain 1 EEDDYTARAPLTCYFT, the enrichment was -6.45.

Take chain 1 EEDDYTAQAPLTCYFT: the enrichment is -4.62.

In the case of chain 1 EEDDYTACAPLTCYFT, the enrichment is -7.94.

Turning to chain 1 EEDDYTAHAPLTCYFT, the enrichment is -5.83.

On to chain 1 EEDDYTAGAPLTCYFT, for which the enrichment was -6.97.

With chain 1 EEDDYTASAPLTCYFT, the enrichment was -8.01.

Regarding chain 1 EEDDYTAAAPLTCYFT, the enrichment was -7.04.

For chain 1 EEDDYTATAPLTCYFT, the enrichment is -6.74.

Variants of B2 are the subject of a further experiment. The note with it: with CCL1 (biotinylated, synthetic); scale: log2.
In the case of chain 1 EEKDYTAYAPLTCYFT, the enrichment is -4.59.

With chain 1 EERDYTAYAPLTCYFT, the enrichment is -6.68.

For chain 1 EECDYTAYAPLTCYFT, the enrichment was -9.13.

chain 1 EEDDPTAYAPLTCYFT: the enrichment was -5.96.

Take chain 1 EEDDRTAYAPLTCYFT: the enrichment is -6.28.

Consider chain 1 EEDDHTAYAPLTCYFT, for which the enrichment was -6.55.

For chain 1 EEDDSTAYAPLTCYFT, the enrichment is -8.33.

Regarding chain 1 EEDDETAYAPLTCYFT, the enrichment was -2.71.

Turning to chain 1 EEDDCTAYAPLTCYFT, the enrichment was -8.4.

As for chain 1 EEDDMTAYAPLTCYFT, the enrichment was -6.87.

Take chain 1 EEDDQTAYAPLTCYFT: the enrichment is -4.59.

As to chain 1 EEDDDTAYAPLTCYFT, the enrichment was -6.28.

As for chain 1 EEDDGTAYAPLTCYFT, the enrichment is -6.34.

In the case of chain 1 EEDDATAYAPLTCYFT, the enrichment is -6.3.

As to chain 1 EEDDKTAYAPLTCYFT, the enrichment is -4.83.

chain 1 EEDDTTAYAPLTCYFT: the enrichment was -6.9.

chain 1 EEDDVTAYAPLTCYFT: the enrichment is -8.5.

Regarding chain 1 EEDDYTAYCPLTCYFT, the enrichment is -9.32.

As for chain 1 EEDDYTAYKPLTCYFT, the enrichment was -5.86.

Consider chain 1 EEDDYTAYHPLTCYFT, for which the enrichment was -7.44.

For the variant chain 1 EEDDYTAYDPLTCYFT, the enrichment was -7.46.

For chain 1 EEDDYTAYAPETCYFT, the enrichment is -7.4.

For the variant chain 1 EEDDYTAYAPPTCYFT, the enrichment is -7.33.

For the variant chain 1 EEDDYTAYAPNTCYFT, the enrichment is -7.68.

As for chain 1 EEDDYTAYAHLTCYFT, the enrichment is -7.18.

Turning to chain 1 EEDDYTAYAKLTCYFT, the enrichment was -6.19.

As to chain 1 EEDDYTAYAILTCYFT, the enrichment was -7.67.

Consider chain 1 EEDDYTAYAFLTCYFT, for which the enrichment is -8.64.

Consider chain 1 EEDDYTAYARLTCYFT, for which the enrichment is -8.31.

Turning to chain 1 EEDDYTAYANLTCYFT, the enrichment is -7.25.

For chain 1 EEDDYTAYAYLTCYFT, the enrichment was -7.79.

Regarding chain 1 EEDDYTAYACLTCYFT, the enrichment was -8.95.

chain 1 EEDDYTAYATLTCYFT: the enrichment is -7.09.

On to chain 1 EEDDYTAYASLTCYFT, for which the enrichment is -8.42.

As for chain 1 EEDDYTCYAPLTCYFT, the enrichment is -9.07.

For the variant chain 1 EKDDYTAYAPLTCYFT, the enrichment is -4.38.

For chain 1 ECDDYTAYAPLTCYFT, the enrichment is -9.24.

Turning to chain 1 EEDDYTAYAPLTIYFT, the enrichment was -7.4.

Consider chain 1 EEDDYTAYAPLTLYFT, for which the enrichment was -10.5.

For the variant chain 1 EEDDYTAYAPLTHYFT, the enrichment is -7.88.

chain 1 EEDDYTAYAPLTKYFT: the enrichment was -8.35.

For chain 1 EEDDYTACAPLTCYFT, the enrichment is -8.91.

Turning to chain 1 EEDDYTAEAPLTCYFT, the enrichment was -5.41.

For the variant chain 1 CEDDYTAYAPLTCYFT, the enrichment was -8.98.

In the case of chain 1 EEDGYTAYAPLTCYFT, the enrichment is -5.45.

In the case of chain 1 EEDKYTAYAPLTCYFT, the enrichment is -6.11.

As for chain 1 EEDQYTAYAPLTCYFT, the enrichment was -5.71.

On to chain 1 EEDRYTAYAPLTCYFT, for which the enrichment was -6.32.

chain 1 EEDVYTAYAPLTCYFT: the enrichment is -9.08.

With chain 1 EEDTYTAYAPLTCYFT, the enrichment is -7.11.

As for chain 1 EEDCYTAYAPLTCYFT, the enrichment is -8.47.
